# Measurements reported in US9725518B2, “Antibodies that bind to Jagged 1” (Cancer Research Technology Limited, priority 2013, dated 2017).
# Positions count from the first letter of the chain named.
# B1: J1-65D variant 1: humanised/de-immunised J1-65D: J1-65D_VL_1 + J1-65D_VH_1 (antibody, V domains shown)
# VH: QVQLVQSGAELKKPGSSVKVSCKASGYTFTDYEMHWVRQAPGQGLEWMGAIQPGGGGTAYNQKFKGRVTLTADKSTSTAYMELSSLRSEDTAVYYCTRRGYDDYPFAYWGQGTLVTVSSASTKGP
# VL: DIQMTQSPSSLSASVGDRVTITCRASGNIHNYLAWYQQKPGKAPKLLIYNAKTLADDVPSRFSGSGSGTDYTLTISSLQPEDFATYYCQHFWSAPWTFGGGTKLEIKRT
# B2: J1-65D variant 11: humanised/de-immunised J1-65D: J1-65D_VL_3 + J1-65D_VH_3 (antibody, V domains shown)
# VH: B1 VH with L11V, N61A, K65Q
# VL: B1 VL with D57A, G100Q
# B3: J1-65D variant 10: humanised/de-immunised J1-65D: J1-65D_VL_3 + J1-65D_VH_2 (antibody, V domains shown)
# VH: B1 VH with N61A
# VL: B1 VL with D57A, G100Q
# B4: J1-65D variant 3: humanised/de-immunised J1-65D: J1-65D_VL_1 + J1-65D_VH_3 (antibody, V domains shown)
# VH: B1 VH with L11V, N61A, K65Q
# VL: B1 VL
# B5: J1-65D variant 7: humanised/de-immunised J1-65D: J1-65D_VL_2 + J1-65D_VH_3 (antibody, V domains shown)
# VH: B1 VH with L11V, N61A, K65Q
# VL: B1 VL with D57A
# B6: J1-65D variant 6: humanised/de-immunised J1-65D: J1-65D_VL_2 + J1-65D_VH_2 (antibody, V domains shown)
# VH: B1 VH with N61A
# VL: B1 VL with D57A
# B7: J1-65D variant 2: humanised/de-immunised J1-65D: J1-65D_VL_1 + J1-65D_VH_2 (antibody, V domains shown)
# VH: B1 VH with N61A
# VL: B1 VL
# B8: J1-65D variant 16: humanised/de-immunised J1-65D: J1-65D_VL_4 + J1-65D_VH_4 (antibody, V domains shown)
# VH: QVQLVQSGAEVKKPGSSVKVSCKASGYTFTDYEMHWVRQAPGQGLEWMGAIQPGGGGTAYAQKFQGRVTITADKSTSTAYMELSSLRSEDTAVYYCTRRGYDDYPFAYWGQGTLVTVSS
# VL: DIQMTQSPSSLSASVGDRVTITCRASQGIHNYLAWYQQKPGKAPKLLIYNAKTLADAVPSRFSGSGSGTDYTLTISSLQPEDFATYYCQQFWSAPWTFGQGTKLEIK
# B9: J1-65D variant 14: humanised/de-immunised J1-65D: J1-65D_VL_4 + J1-65D_VH_2 (antibody, V domains shown)
# VH: B8 VH with V11L, Q65K, I70L
# VL: B8 VL
# B10: J1-65D variant 15: humanised/de-immunised J1-65D: J1-65D_VL_4 + J1-65D_VH_3 (antibody, V domains shown)
# VH: B8 VH with I70L
# VL: B8 VL
# B11: J1-65D variant 13: humanised/de-immunised J1-65D: J1-65D_VL_4 + J1-65D_VH_1 (antibody, V domains shown)
# VH: B8 VH with V11L, A61N, Q65K, I70L
# VL: B8 VL
# Biological target: T1, N1 binding to cell surface expressed hJ1 (Homo sapiens, UniProt P78504)
# T1 construct: cell expressed full length human J1 (hJ1; HEK293 transfectants); expressed in transfected cells; host or cells: HEK293
# Assay: Notch binding blocking assay (FACS): N1 EGF11-13 beads staining human J1-expressing cells
# Design: key: +: Complete blocking; X: No blocking
# Conditions: final antibody concentration 0.2 μg/ml
# Method: To functionally identify mAbs with the capacity to disrupt the J1-N1 protein:protein interaction, hybridoma culture supernatants were tested in a FACS-based binding assay. Biotinylated soluble human N1 EGF11-13 recombinant protein was bound to avidin-coated beads and used to stain J1-expressing cells in the presence or absence of each mAb that recognised cell surface hJ1 by FACS. […] The four blocking antibodies of the invention were also able to block the binding of recombinant […] to a biotin-tagged J1 DSL-EGF3 recombinant protein in an ELISA assay (FIG. 1B). […] The four blocking mAbs of the invention were purified from serum-free culture supernatants and equal concentrations of purified antibodies were used to compare their activity in subsequent assays (unless hybridoma supernatant was specified). Sequence conservation across the DSL domain raised the possibility that the J1 mAbs may also be able to bind the Jagged 2 (J2) protein. Antibody binding specificity was initially tested by immunocytochemical labelling of cytospin samples of hJ1 and hJ2 transfectants (FIG. 2). All antibodies stained J1 transfectants but none stained the J2 transfected cells, and J2 expression in the same experiment was confirmed using a commercial anti-J2 antibody. The specificity of the purified mAbs was further investigated in mammalian cells transfected with hJ2, human Delta-like ligand 4 (hDLL4), or mJ1 (FIG. 3). Transfectants were FACS stained with 10 μg/ml of each of the four blocking mAbs.
# To test the blocking efficiencies of the J1 mAbs, purified mAbs were titrated to determine the concentration required to block recombinant N1 binding to cell surface expressed hJ1. Beads coated with a bacterially-expressed N1 EGF11-13 protein were used to stain the hJ1-expressing cells in the presence of various concentrations of mAbs.
# The FACS-based binding assay using biotinylated soluble human N1 EGF11-13 recombinant protein bound to avidin-coated fluorescent beads to stain J1-expressing cells was performed using a dilution series of each variant mAb to test their ability to block J1 binding to N1 by FACS (Table 7). […] Thus 12/16 J1-65D1 variants V1-12 and all J1-183D variants have the desired binding and blocking activity.
# Human N1 EGF11-13 (411-526) was expressed in E. coli, refolded in vitro and labelled with purple fluorescent avidin-coated beads (Spherotech) as previously described. HEK293 cells transfected with human J1 or B16F10 cells transfected with mouse J1 were stained with N1 fluorescent beads in the presence of J1 antibody supernatants or purified antibody (murine, chimeric or humanised) diluted in HBBS/10% FCS. Cells were washed and re-suspended in staining buffer before being analysed with a FACSCalibur and data analysis with CellQuest. HEK293 cells transfected with human Jagged 2 and B16F10 cells transfected with human and mouse DLL4 were stained similarly to test blocking specificity.
# T1 sequence (P78504 34-1218): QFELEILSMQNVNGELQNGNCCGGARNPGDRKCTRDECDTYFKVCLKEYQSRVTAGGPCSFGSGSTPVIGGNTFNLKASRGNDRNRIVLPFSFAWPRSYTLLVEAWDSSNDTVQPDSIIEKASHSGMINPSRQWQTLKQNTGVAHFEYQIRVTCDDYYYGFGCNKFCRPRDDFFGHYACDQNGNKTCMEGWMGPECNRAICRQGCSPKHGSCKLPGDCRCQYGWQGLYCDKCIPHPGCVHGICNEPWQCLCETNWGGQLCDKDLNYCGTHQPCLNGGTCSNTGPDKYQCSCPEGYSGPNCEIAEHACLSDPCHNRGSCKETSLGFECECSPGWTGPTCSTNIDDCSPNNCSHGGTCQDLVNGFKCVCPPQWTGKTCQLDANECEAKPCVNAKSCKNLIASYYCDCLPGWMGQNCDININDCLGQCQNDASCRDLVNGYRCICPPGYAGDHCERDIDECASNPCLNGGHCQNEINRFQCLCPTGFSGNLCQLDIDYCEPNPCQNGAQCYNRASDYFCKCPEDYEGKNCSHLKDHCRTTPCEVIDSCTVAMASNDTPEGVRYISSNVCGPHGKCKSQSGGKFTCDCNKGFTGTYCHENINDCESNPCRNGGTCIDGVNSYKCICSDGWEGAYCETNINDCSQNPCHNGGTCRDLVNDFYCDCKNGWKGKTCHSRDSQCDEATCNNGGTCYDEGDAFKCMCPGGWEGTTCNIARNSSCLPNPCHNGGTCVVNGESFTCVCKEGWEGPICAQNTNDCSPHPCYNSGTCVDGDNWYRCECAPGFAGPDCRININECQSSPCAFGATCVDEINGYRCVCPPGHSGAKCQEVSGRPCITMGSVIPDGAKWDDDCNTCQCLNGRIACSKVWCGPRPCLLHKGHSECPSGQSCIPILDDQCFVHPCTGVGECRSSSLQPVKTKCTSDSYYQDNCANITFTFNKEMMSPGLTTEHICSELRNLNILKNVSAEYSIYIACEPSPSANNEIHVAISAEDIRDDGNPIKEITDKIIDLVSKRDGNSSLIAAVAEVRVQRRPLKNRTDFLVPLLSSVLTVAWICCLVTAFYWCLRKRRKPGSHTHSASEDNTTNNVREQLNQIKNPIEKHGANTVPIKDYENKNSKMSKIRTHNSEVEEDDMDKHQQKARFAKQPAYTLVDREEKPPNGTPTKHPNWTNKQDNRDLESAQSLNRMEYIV
row,Molecule,Blocking of Notch1 binding to cell surface Jagged 1
1,B1,X
2,B2,X
3,B3,X
4,B4,X
5,B5,X
6,B6,X
7,B7,X

# Same assay, conditions: final antibody concentration 0.4 μg/ml
row,Molecule,Blocking of Notch1 binding to cell surface Jagged 1
1,B1,+ (Complete blocking)
2,B2,+ (Complete blocking)
3,B3,+ (Complete blocking)
4,B4,+ (Complete blocking)
5,B5,+ (Complete blocking)
6,B6,+ (Complete blocking)
7,B7,+ (Complete blocking)

# Same assay, conditions: final antibody concentration 0.6 μg/ml
row,Molecule,Blocking of Notch1 binding to cell surface Jagged 1
1,B1,+ (Complete blocking)
2,B2,+ (Complete blocking)
3,B3,+ (Complete blocking)
4,B4,+ (Complete blocking)
5,B5,+ (Complete blocking)
6,B6,+ (Complete blocking)
7,B7,+ (Complete blocking)

# Same assay, conditions: final antibody concentration 1.0 μg/ml
row,Molecule,Blocking of Notch1 binding to cell surface Jagged 1
1,B1,+ (Complete blocking)
2,B2,+ (Complete blocking)
3,B3,+ (Complete blocking)
4,B4,+ (Complete blocking)
5,B5,+ (Complete blocking)
6,B6,+ (Complete blocking)
7,B7,+ (Complete blocking)
8,B8,X
9,B9,X
10,B10,X

# Same assay, conditions: final antibody concentration 2.0 μg/ml
row,Molecule,Blocking of Notch1 binding to cell surface Jagged 1
1,B11,Partial
2,B8,Partial
3,B9,Partial
4,B10,Partial

# Test system: not listed separately
# Assay: Soluble aggregates of transiently expressed antibodies
# Format: physicochemical
# Conditions: Protein A purified antibody
# From the text: The protein yield of these antibodies, their levels of soluble aggregates and their binding affinity to the immunogen (J1-DE3) are illustrated in (Table 6).
row,Molecule,% soluble aggregate [%]
1,B1,0
2,B2,1.00
3,B3,0.59
4,B4,1.67
5,B5,0
6,B6,0
7,B7,0
8,B11,2.82
9,B8,5.60
10,B9,6.61
11,B10,5.29
